# Measurements as given in patent publication US20160184446A1, “METHOD OF INHIBITING BODY CAVITY FLUID ACCUMULATION” (Toray Industries, Inc., priority 2012, published 2016).
# System: gastric cancer peritoneal metastasis mouse models (GCIY-EGFP cells)
# Assay: Ascites accumulation in gastric cancer peritoneal metastasis mouse models, systemic (subcutaneous) administration
# Assay type: in vivo
# Conditions: subcutaneous (systemic), 5,000 U/mouse/dose, twice a week for 4 weeks; ascites collected 2 weeks after final administration; vs PBS control
# Method: Gastric cancer peritoneal metastasis mouse models were produced by transplanting human gastric cancer cells, GCIY-EGFP cells, intraperitoneally into male KSN nude mice in the same manner as in Example 2.
# Administration was initiated on the day after transplantation and performed twice a week for 4 weeks. Phosphate buffer (PBS) was administered to the control group in the same manner. Ascites was collected from the gastric cancer peritoneal metastasis mouse models under anesthesia 2 weeks after the final administration and the liquid volume was measured.
# The vertical axis represents the amount of ascites (median; mL).
molecule,measurement,value
"PEG-mIFN-β: one PEG molecule with a molecular weight of 42,000 covalently bound to recombinant mouse interferon-β (conjugate, UniProt P01575 22-182, looked up, 42 kDa PEG) Interferon beta: INYKQLQLQERTNIRKCQELLEQLNGKINLTYRADFKIPMEMTEKMQKSYTAFAIQEMLQNVFLVFRNNFSSTGWNETIVVRLLDELHQQTVFLKTVLEEKQEERLTWEMSSTALHLKSYYWRVQRYLKLMKYNSYAWMVVRAEIFRNFLIIRRLTRNFQN",accumulation of ascites (amount of ascites),remarkably inhibited
